What was measured:
[1] = target: T1, Csa5 (Csa5b) WT (Thermoproteus tenax Kra1) (UniProt G4RJZ0); assay: EMSA; details: EMSA: 100 mM HEPES/KOH pH 7, 10 mM beta-mercaptoethanol, 37 C 30 min, 6% native TBE PAGE; MST: 50 mM Tris-HCl pH 7.4, 150 mM NaCl, 0.05% Tween-20, 37 C 30 min …
T1 sequence: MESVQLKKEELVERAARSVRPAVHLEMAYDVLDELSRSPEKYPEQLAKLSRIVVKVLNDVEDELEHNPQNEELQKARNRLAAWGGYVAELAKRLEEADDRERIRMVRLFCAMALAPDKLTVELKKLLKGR

[2] = target: T2, Csa5 (Csa5b) WT (Thermoproteus tenax Kra1, UniProt G4RJZ0 1-130); assay: EMSA; 7-fold weaker than NT DNA; EMSA: 100 mM HEPES/KOH pH 7, 10 mM beta-mercaptoethanol, 37 C 30 min, 6% native TBE PAGE; MST: 50 mM Tris-HCl pH 7.4, 150 mM NaCl, 0.05% Tween-20, 37 C 30 min; details: protein: recombinant; tags: none stated (pET24a); label: 5' 32P
T2 sequence: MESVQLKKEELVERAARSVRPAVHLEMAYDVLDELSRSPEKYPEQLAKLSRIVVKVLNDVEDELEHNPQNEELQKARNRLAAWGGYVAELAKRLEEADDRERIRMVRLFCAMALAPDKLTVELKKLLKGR

[3] = target: T2, Csa5 (Csa5b) WT; assay: EMSA; 3.75-60 uM Csa5; EMSA: 100 mM HEPES/KOH pH 7, 10 mM beta-mercaptoethanol, 37 C 30 min, 6% native TBE PAGE; MST: 50 mM Tris-HCl pH 7.4, 150 mM NaCl, 0.05% Tween-20, 37 C 30 min; details: protein: recombinant; tags: none stated (pET24a); label: 5' 32P
[4] = target: T2, Csa5 (Csa5b) WT; assay: EMSA; 15 uM Csa5; EMSA: 100 mM HEPES/KOH pH 7, 10 mM beta-mercaptoethanol, 37 C 30 min, 6% native TBE PAGE; MST: 50 mM Tris-HCl pH 7.4, 150 mM NaCl, 0.05% Tween-20, 37 C 30 min; details: protein: recombinant; tags: none stated (pET24a); label: 5' 32P
[5] = target: T2, Csa5 (Csa5b) WT; assay: EMSA; duplex formed with 1000x cold crRNA; 15 uM Csa5; EMSA: 100 mM HEPES/KOH pH 7, 10 mM beta-mercaptoethanol, 37 C 30 min, 6% native TBE PAGE; MST: 50 mM Tris-HCl pH 7.4, 150 mM NaCl, 0.05% Tween-20, 37 C 30 min; details: protein: recombinant; tags: none stated (pET24a); label: 5' 32P on DNA
[6] = target: T3, Thermoproteus tenax Cas8a2 (Thermoproteus tenax, UniProt G4RJZ5 1-361); assay: co-refolding reconstitution, soluble fraction by SDS-PAGE; 300 µg of each GdmCl-solubilized Cas5a, Cas3′, Cas3″ and Cas8a2 mixed with purified Cas7 and a Csa5 variant, co-refolded by stepwise dialysis into GdmCl-free buffer; aggregates precipitated (14,000×g, 30 min, 4°C), soluble proteins concentrated and analysed by SDS-PAGE; details: both partners purified
T3 construct: also called large subunit
T3 sequence (looked up): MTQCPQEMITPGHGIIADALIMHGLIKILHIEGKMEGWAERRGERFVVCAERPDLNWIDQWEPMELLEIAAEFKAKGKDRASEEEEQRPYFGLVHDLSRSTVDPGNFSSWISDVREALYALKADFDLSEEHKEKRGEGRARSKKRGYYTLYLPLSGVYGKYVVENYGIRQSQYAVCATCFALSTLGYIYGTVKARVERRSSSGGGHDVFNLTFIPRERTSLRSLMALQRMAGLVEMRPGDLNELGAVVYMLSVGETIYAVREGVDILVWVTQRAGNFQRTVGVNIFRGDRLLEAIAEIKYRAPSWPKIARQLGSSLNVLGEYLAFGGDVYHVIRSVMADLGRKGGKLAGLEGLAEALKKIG

[7] = target: T4, Thermoproteus tenax Cas7 (Thermoproteus tenax, UniProt G4RJZ1 1-329); assay: as above; details: both partners purified
T4 sequence (looked up): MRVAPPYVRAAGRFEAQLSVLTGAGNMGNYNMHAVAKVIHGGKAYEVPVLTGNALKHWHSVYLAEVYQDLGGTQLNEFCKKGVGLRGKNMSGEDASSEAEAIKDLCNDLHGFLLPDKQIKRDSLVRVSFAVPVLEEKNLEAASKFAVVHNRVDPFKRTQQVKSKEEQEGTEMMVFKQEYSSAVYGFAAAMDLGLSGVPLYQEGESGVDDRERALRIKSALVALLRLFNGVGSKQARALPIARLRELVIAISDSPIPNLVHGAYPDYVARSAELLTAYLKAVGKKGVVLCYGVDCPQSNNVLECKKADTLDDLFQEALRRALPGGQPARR

[8] = target: T5, Thermoproteus tenax Cas5a (Thermoproteus tenax, UniProt G4RJZ2 1-226); assay: as above; details: both partners purified
T5 sequence (looked up): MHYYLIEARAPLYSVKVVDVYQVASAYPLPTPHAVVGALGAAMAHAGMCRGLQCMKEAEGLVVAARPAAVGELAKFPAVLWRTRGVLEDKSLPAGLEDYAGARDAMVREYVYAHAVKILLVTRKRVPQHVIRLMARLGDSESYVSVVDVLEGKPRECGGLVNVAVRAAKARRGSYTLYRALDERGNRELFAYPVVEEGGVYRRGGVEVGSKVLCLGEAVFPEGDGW

[9] = target: T2, Csa5 (Csa5b) WT; assay: EMSA; no difference from AGG-PAM; EMSA: 100 mM HEPES/KOH pH 7, 10 mM beta-mercaptoethanol, 37 C 30 min, 6% native TBE PAGE; MST: 50 mM Tris-HCl pH 7.4, 150 mM NaCl, 0.05% Tween-20, 37 C 30 min; details: protein: recombinant; tags: none stated (pET24a); label: 5' 32P
[10] = target: T2, Csa5 (Csa5b) WT; assay: MST; Tris pH 7.4, 150 mM NaCl; no metal; EMSA: 100 mM HEPES/KOH pH 7, 10 mM beta-mercaptoethanol, 37 C 30 min, 6% native TBE PAGE; MST: 50 mM Tris-HCl pH 7.4, 150 mM NaCl, 0.05% Tween-20, 37 C 30 min; details: protein: recombinant; tags: none stated (pET24a); label: 5' Cy3
[11] = target: T2, Csa5 (Csa5b) WT; assay: EMSA; no difference from GAG-PAM; EMSA: 100 mM HEPES/KOH pH 7, 10 mM beta-mercaptoethanol, 37 C 30 min, 6% native TBE PAGE; MST: 50 mM Tris-HCl pH 7.4, 150 mM NaCl, 0.05% Tween-20, 37 C 30 min; details: protein: recombinant; tags: none stated (pET24a); label: 5' 32P

GTCGACTAATACGACTCACTATAGGCCTATCGCTTGTCCAACCGGGCTCCTCTATATGTCGTCATTAGCTTACCGCTGAGCAATAACTAGCAAGCTT (double strand) [NT/T dsDNA 97 bp]
binding signal (fold weaker than ssDNA) [1]: 14

B1: p1 (38 nt) (ssDNA)
DNA: GTCGACTAATACGACTCACTATAGGCCTATCGCTTGTC
binding signal [2]: 12 % bound at 15 uM

B2: CAC-PAM disrupted poly-PAM ssDNA (ssDNA)
DNA: AAAACACAAACACAAACACAAACACAAACACAAACACAAACACAAACACAAACACAAACACAAACACAAACACAAACACAAACACAAACACAAACACAAA
binding result [3]: binds

B3: target (T) ssDNA 97 nt (ssDNA)
DNA: AAGCTTGCTAGTTATTGCTCAGCGGTAAGCTAATGACGACATATAGAGGAGCCCGGTTGGACAAGCGATAGGCCTATAGTGAGTCGTATTAGTCGAC
binding result [4]: binds

B4: T DNA:crRNA hybrid (DNA:RNA)
DNA: AAGCTTGCTAGTTATTGCTCAGCGGTAAGCTAATGACGACATATAGAGGAGCCCGGTTGGACAAGCGATAGGCCTATAGTGAGTCGTATTAGTCGAC
RNA: AUUGAAAGAUCGCUUGUCCAACCGGGCUCCUCUAUAUGUCGUCAUUAGCUUAGA
binding result [5]: no binding

B5: p3 (38 nt) (ssDNA)
DNA: CGTCATTAGCTTACCGCTGAGCAATAACTAGCAAGCTT
binding signal [2]: 12 % bound at 15 uM

B6: Thermoproteus tenax Csa5 wild type (TTX_1250) (natural protein, Thermoproteus tenax Kra1, UniProt G4RJZ0 1-130, looked up)
chain: MESVQLKKEELVERAARSVRPAVHLEMAYDVLDELSRSPEKYPEQLAKLSRIVVKVLNDVEDELEHNPQNEELQKARNRLAAWGGYVAELAKRLEEADDRERIRMVRLFCAMALAPDKLTVELKKLLKGR
notes: Csa5 (Csa5b), small subunit of the type I-A Cascade, Thermoproteus tenax Kra1, locus TTX_1250; theoretical mass of the monomer 15.04 kDa; no tag is named and the purification uses none; also called Csa5 WT; Csa5b; source: E. coli Rosetta(DE3)pLysS, purified (heat precipitation 90°C, Blue-Sepharose, MonoQ)
binding result [6]: binds
binding result [7]: binds
binding result [8]: binds

B7: Thermoproteus tenax Csa5 D30A/D33A (natural protein, Thermoproteus tenax Kra1, UniProt G4RJZ0 1-130, looked up)
chain: MESVQLKKEELVERAARSVRPAVHLEMAYAVLAELSRSPEKYPEQLAKLSRIVVKVLNDVEDELEHNPQNEELQKARNRLAAWGGYVAELAKRLEEADDRERIRMVRLFCAMALAPDKLTVELKKLLKGR
notes: Made by site-directed mutagenesis of the pET24a csa5 construct; source: E. coli Rosetta(DE3)pLysS, purified (heat precipitation 90°C, Blue-Sepharose, MonoQ)
binding result [6]: binds
binding result [7]: binds
binding result [8]: binds

B8: Thermoproteus tenax Csa5 Y29A (natural protein, Thermoproteus tenax Kra1, UniProt G4RJZ0 1-130, looked up)
chain: MESVQLKKEELVERAARSVRPAVHLEMAADVLDELSRSPEKYPEQLAKLSRIVVKVLNDVEDELEHNPQNEELQKARNRLAAWGGYVAELAKRLEEADDRERIRMVRLFCAMALAPDKLTVELKKLLKGR
notes: as for B7
binding result [6]: binds
binding result [7]: binds
binding result [8]: binds

B9: Thermoproteus tenax Csa5 D33A (natural protein, Thermoproteus tenax Kra1, UniProt G4RJZ0 1-130, looked up)
chain: MESVQLKKEELVERAARSVRPAVHLEMAYDVLAELSRSPEKYPEQLAKLSRIVVKVLNDVEDELEHNPQNEELQKARNRLAAWGGYVAELAKRLEEADDRERIRMVRLFCAMALAPDKLTVELKKLLKGR
notes: as for B7
binding result [6]: binds
binding result [7]: binds
binding result [8]: binds

B10: CCA-PAM poly-PAM ssDNA (ssDNA)
DNA: AAAACCAAAACCAAAACCAAAACCAAAACCAAAACCAAAACCAAAACCAAAACCAAAACCAAAACCAAAACCAAAACCAAAACCAAAACCAAAACCAAAA
binding result [3]: binds

B11: GAG-PAM disrupted poly-PAM ssDNA (ssDNA)
DNA: AAAAGAGAAAGAGAAAGAGAAAGAGAAAGAGAAAGAGAAAGAGAAAGAGAAAGAGAAAGAGAAAGAGAAAGAGAAAGAGAAAGAGAAAGAGAAAGAGAAA
binding result [9]: binds

B12: Cy3-non-target ssDNA 80 nt (ssDNA)
DNA: CGACTCACTATAGGCCTATCGCTTGTCCAACCGGGCTCCTCTATATGTCGTCATTAGCTTACCGCTGAGCAATAACTAGC
Kd [10]: 6.49 µM

B13: p2 (38 nt) (ssDNA)
DNA: ATCGCTTGTCCAACCGGGCTCCTCTATATGTCGTCATT
binding signal [2]: 12 % bound at 15 uM

B14: AGG-PAM poly-PAM ssDNA (ssDNA)
DNA: AAAAGGAAAAGGAAAAGGAAAAGGAAAAGGAAAAGGAAAAGGAAAAGGAAAAGGAAAAGGAAAAGGAAAAGGAAAAGGAAAAGGAAAAGGAAAAGGAAAA
binding result [11]: binds
